Legend:
[1] = target: full-length cyno SIRPβ1 (XP_005568598, clone PA2), on CHO cells (cynomolgus monkey); assay: flow cytometry on CHO cells expressing the target
[2] = target: full-length cyno SIRPα (XP_015313155, clone P3HD10), on CHO cells (cynomolgus monkey); assay: flow cytometry on CHO cells expressing the target
[3] = target: ED-tagged human SIRPα V1 receptor on Jurkat SIRPα-V1 signaling cells (human) (UniProt P78324); assay: cell-based or functional assay
[4] = target: ED-tagged human SIRPα V2 receptor on Jurkat SIRPα-V2 signaling cells (human) (UniProt P78324); assay: cell-based or functional assay
Sequence of ED-tagged human SIRPα V2 receptor on Jurkat SIRPα-V2 signaling cells (human) (P78324 31-504): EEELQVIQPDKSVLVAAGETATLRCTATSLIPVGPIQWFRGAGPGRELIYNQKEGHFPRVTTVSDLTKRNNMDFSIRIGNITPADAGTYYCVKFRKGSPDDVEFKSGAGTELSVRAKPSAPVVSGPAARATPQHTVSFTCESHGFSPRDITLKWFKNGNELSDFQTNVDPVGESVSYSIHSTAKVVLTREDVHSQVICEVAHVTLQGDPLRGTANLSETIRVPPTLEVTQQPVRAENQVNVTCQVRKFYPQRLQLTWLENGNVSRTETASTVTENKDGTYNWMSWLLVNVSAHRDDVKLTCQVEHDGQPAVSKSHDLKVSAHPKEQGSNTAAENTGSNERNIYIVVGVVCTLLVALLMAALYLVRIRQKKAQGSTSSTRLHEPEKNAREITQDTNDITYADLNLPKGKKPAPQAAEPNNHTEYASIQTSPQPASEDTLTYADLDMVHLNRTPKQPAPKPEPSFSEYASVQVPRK

Sequence of KWAR23 (antibody) (VH): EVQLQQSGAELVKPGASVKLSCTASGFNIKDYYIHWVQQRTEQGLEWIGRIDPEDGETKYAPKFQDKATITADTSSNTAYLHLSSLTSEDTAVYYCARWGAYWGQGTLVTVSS
Sequence of KWAR23 (antibody) (VL): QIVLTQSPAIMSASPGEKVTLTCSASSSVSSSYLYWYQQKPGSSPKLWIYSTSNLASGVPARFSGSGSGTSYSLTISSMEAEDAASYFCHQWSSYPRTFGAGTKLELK
Sequence of ED-tagged human SIRPα V1 receptor on Jurkat SIRPα-V1 signaling cells (human) (P78324 31-504): as the sequence (P78324 31-504) above

KWAR23 (antibody)
EC50 [1]: 0.2 nM | EC50 [2]: 0.5 nM | IC50 of SIRPα signaling (SHP-1 recruitment, enzyme fragment complementation, Jurkat reporter cells) [3]: 0.04 nM | IC50 of SIRPα signaling (SHP-1 recruitment, enzyme fragment complementation, Jurkat reporter cells) [4]: 0.04 nM

— patent US20230203188A1
